We go through 10 molecules from patent US20200054723A1 (ALLAKOS, published 2020).

What is called koff is the first-order rate constant of dissociation. The low end stands for slow dissociation, the high end for fast dissociation. In general, kon refers to a measure of how fast the partners come together. As a reminder, the EC50 is the midpoint of the concentration-response curve.

Experiment [1] has as its target T1, human Siglec-8 on human cells (eosinophils, mast cells) (human, UniProt Q9NYZ4 17-499). As to the kind of experiment: cell-based or functional assay.
For experiment [2], the target named is T1, human Siglec-8 on human cells …. As to the kind of experiment: cell-based or functional assay. The source holds these as a separate data set.
Experiment [3] addresses T2, baboon Siglec-8 Domains 1, 2, and 3 Fusion Protein (olive baboon (Papio anubis)).
T2 construct: fused to human Ig-Fc
The experiment in a line: ELISA, coated fusion protein. As to the method: (§1) To identify the region comprising the epitope for anti-Siglec-8 antibodies, fusion proteins containing each of the Siglec-8 extracellular domains fused to human Ig-Fc were expressed and purified from CHO cells.
(§2) For the antibody binding assays, ELISA plates (MaxiSorp; Nunc) were coated overnight at 4° C. with fusion protein at 0.2 μg/ml and blocked for 1 hour at room temperature with 2% BSA in PBS. Antibodies at 1 μg/ml were added and the plates were incubated for 2 hours at room temperature. After washing the plates, horseradish peroxidase conjugated secondary antibody was added and the plates were incubated for 1 hour. Secondary antibodies were anti-human H+L HRP (Jackson ImmunoResearch, Catalog Number 709-035-149) for humanized antibodies or anti-mouse H+L HRP (Jackson ImmunoResearch, Catalog Number 715-035-151) for mouse antibodies. The plates were developed with TMB Substrate (Sigma, Catalog Number T0440-1L).

In experiment [4] the target is T3, Dimeric Siglec-8 (human Siglec-8 ECD protein) (human, UniProt Q9NYZ4 17-363).
T3 construct: extracellular domain; Analyte of the Biacore avidity assay
T3 sequence (Q9NYZ4 17-363): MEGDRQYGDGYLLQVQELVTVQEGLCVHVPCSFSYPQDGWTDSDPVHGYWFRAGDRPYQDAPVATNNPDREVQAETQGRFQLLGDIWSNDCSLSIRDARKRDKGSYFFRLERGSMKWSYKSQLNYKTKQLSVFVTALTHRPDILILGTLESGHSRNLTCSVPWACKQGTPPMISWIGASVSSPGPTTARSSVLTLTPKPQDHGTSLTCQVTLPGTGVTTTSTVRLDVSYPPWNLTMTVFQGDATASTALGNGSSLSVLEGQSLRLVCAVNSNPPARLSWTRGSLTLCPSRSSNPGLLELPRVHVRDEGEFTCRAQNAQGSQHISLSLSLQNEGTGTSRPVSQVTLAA
The experiment in a line: SPR (Biacore), antibody captured, dimeric Siglec-8 as analyte, 1:1 global fit (avidity). As to the method: Antibody avidity determination was carried out by SPR analysis using a Biacore T200. Binding of human Siglec-8 ECD protein to mouse, chimeric and humanized anti-Siglec-8 antibodies was measured on a […]. The capture antibodies (goat-anti-human-Fc and goat-anti-mouse-Fc from Jackson Immunoresearch) were immobilized on a CM5 chip according to manufacturer's protocol (Biacore, GE). Flow-cell 1, 2 and 3 were immobilized with anti-human, and flow cell 4 with anti-mouse antibodies. The assay was conducted at 25° C., at a flow rate of […]. Assay buffer was 20 mM Tris-HCl pH 8.3, 150 mM Sodium Chloride, 0.05% Polysorbate 20, 10% glycerol, 0.1% BSA, made in ultrapure water. Dimeric Siglec-8 (impurities of monomeric and oligomeric Siglec-8 were removed by size-exclusion chromatography) was diluted in assay buffer from 15 nM to […] with 2× dilutions. Antibodies were captured to a change of approximately 120 RU. Six-minute high performance injections were conducted, followed by 120-minute dissociations. Flow cells were regenerated with 50 mM glycine pH 1.5. Results were double blanked with an empty reference cell and multiple assay buffer injections, and analyzed with 1:1 global fit parameters.
(SPR reads the build-up and loss of mass on a sensor chip optically.)

For experiment [5], the target named is T4, recombinant human Siglec-8 extracellular domain (ECD) (human, UniProt Q9NYZ4 17-363).
T4 construct: extracellular domain; also called Siglec-8 ECD; full Siglec-8 ECD
T4 sequence (Q9NYZ4 17-363): as above
The experiment in a line: ELISA, coated Siglec-8 ECD. Background: An ELISA detects its analyte on a solid surface through an enzyme-linked reagent.

Experiment [6] addresses T4, recombinant human Siglec-8 …. As to the kind of experiment: ELISA, coated Siglec-8 ECD. This is another data set of the same source.
For experiment [7], the target named is T2, baboon Siglec-8 Domains 1, 2, and 3 …. As to the kind of experiment: ELISA, baboon cross-reactivity. On the procedure: as §1, §2
The target in experiment [8] is T5, human Siglec-8 Domains 1, 2, and 3 Fusion Protein (human).
T5 construct: fused to human Ig-Fc, expressed in CHO cells; also called Domain 1 + 2 + 3-Fc
T5 sequence (chain, as listed by the source limits assumed): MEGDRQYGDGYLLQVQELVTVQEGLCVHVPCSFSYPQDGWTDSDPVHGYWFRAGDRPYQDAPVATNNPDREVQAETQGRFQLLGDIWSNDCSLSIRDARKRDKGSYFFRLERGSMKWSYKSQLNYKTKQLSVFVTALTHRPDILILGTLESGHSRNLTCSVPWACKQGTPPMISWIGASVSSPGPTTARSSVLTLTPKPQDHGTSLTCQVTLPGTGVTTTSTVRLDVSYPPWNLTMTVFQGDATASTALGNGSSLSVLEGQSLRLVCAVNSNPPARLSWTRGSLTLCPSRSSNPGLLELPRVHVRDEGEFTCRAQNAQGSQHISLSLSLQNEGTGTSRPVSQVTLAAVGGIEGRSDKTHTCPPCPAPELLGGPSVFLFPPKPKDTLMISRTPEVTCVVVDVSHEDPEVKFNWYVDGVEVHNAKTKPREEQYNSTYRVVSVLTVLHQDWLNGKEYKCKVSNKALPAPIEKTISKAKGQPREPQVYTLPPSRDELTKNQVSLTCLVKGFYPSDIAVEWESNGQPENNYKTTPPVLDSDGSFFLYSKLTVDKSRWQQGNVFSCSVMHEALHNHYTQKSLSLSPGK
The experiment in a line: Western blot of reduced SDS-PAGE (linear epitope). (In general: A western blot detects proteins with antibodies after separation by electrophoresis.)

Experiment [9] concerns the target T6, human Siglec-8 Domain 1 Fusion Protein (human).
T6 construct: fused to human Ig-Fc, expressed in CHO cells; also called Domain 1-Fc
As to the kind of experiment: ELISA, coated fusion protein. As to the method: as §1, §2

The target of experiment [10] is T7, human Siglec-8 Domains 1 and 2 Fusion Protein (human).
T7 construct: fused to human Ig-Fc, expressed in CHO cells; also called Domain 1 + 2-Fc
T7 sequence (chain, as listed by the source limits assumed): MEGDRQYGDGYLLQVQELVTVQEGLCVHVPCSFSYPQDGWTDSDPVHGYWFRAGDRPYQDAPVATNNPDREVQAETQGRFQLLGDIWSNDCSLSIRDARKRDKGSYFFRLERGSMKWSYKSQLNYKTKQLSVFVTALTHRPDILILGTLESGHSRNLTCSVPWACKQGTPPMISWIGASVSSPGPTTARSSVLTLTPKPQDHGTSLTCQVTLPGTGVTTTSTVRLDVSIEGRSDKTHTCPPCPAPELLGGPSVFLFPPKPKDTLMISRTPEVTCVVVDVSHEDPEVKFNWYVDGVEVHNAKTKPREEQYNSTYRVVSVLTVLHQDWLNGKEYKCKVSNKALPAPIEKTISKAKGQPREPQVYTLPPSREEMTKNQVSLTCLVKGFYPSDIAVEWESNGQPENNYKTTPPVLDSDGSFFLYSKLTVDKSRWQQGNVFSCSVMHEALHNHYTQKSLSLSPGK
As to the kind of experiment: ELISA, coated fusion protein, antibody at 1 µg/ml. As to the method: as §1, §2

Experiment [11] has as its target T5, human Siglec-8 Domains 1, 2, and 3 …. As to the kind of experiment: ELISA, coated fusion protein, antibody at 1 µg/ml. On the procedure:
as §1, §2

The target of experiment [12] is T6, human Siglec-8 Domain 1 Fusion Protein. As to the kind of experiment: ELISA, coated fusion protein, antibody at 1 µg/ml. On the procedure:
as §1, §2

Where “and” joins values, the source holds several entries; their conditions need not be identical. Equal values may be shown once.

T2 sequence (chain, as listed by the source limits assumed): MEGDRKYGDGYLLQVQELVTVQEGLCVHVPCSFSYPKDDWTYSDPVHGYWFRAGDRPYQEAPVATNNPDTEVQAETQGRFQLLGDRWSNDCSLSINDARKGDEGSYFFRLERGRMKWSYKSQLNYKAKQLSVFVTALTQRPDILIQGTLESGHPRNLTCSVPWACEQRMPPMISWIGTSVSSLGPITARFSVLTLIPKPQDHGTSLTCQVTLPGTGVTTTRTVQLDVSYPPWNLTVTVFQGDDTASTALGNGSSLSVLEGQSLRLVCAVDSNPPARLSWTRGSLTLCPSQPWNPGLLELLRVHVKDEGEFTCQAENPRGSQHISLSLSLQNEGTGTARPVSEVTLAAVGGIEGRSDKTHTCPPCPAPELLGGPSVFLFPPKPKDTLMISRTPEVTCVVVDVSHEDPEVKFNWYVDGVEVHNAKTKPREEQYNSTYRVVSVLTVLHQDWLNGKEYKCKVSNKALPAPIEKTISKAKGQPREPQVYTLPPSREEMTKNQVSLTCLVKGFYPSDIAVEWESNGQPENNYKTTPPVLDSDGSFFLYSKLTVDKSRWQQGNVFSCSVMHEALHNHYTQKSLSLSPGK
T1 sequence (Q9NYZ4 17-499): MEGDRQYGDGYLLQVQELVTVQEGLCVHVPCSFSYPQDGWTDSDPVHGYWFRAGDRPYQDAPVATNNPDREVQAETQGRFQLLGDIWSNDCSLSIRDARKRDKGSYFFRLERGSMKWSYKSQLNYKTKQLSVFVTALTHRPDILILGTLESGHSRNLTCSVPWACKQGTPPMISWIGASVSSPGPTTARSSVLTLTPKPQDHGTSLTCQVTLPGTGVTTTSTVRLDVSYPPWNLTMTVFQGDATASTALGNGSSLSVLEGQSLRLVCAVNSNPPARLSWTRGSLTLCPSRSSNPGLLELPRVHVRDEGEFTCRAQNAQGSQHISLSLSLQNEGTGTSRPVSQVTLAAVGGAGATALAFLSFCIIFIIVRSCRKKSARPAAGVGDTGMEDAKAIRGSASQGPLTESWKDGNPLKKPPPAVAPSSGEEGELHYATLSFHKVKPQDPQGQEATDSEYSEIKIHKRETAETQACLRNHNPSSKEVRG
T6 sequence (chain, as listed by the source limits assumed): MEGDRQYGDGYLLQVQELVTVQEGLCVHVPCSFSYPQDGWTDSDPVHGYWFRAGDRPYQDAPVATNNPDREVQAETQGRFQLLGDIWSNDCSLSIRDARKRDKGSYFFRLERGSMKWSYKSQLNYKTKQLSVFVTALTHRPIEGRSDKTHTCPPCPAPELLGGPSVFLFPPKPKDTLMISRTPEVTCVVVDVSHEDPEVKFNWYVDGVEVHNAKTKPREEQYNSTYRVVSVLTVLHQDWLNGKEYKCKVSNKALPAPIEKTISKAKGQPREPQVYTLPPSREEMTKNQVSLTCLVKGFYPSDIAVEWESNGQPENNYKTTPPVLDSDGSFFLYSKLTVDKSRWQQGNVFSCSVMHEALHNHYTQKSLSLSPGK

B1: mouse 2E2 antibody (antibody, mouse IgG1, kappa)
heavy: QVQLKRASGPGLVAPSQSLSITCTVSGFSLTIYGAHWVRQPPGKGLEWLGVIWAGGSTNYNSALMSRLSISKDNSKSQVFLKINSLQTDDTALYYCARDGSSPYYYSMEYWGQGTSVTVSSAKTTPPSVYPLAPGSAAQTNSMVTLGCLVKGYFPEPVTVTWNSGSLSSGVHTFPAVLESDLYTLSSSVTVPSSPRPSETVTCNVAHPASSTKVDKKIVPRDCGCKPCICTVPEVSSVFIFPPKPKDVLTITLTPKVTCVVVDISKDDPEVQFSWFVDDVEVHTAQTQPREEQFNSTFRSVSELPIMHQDWLNGKEFKCRVNSAAFPAPIEKTISKTKGRPKAPQVYTIPPPKEQMAKDKVSLTCMITDFFPEDITVEWQWNGQPAENYKNTQPIMNTNGSYFVYSKLNVQKSNWEAGNTFTCSVLHEGLHNHHTEKSLSHSPG
light: QIILTQSPAIMSASPGEKVSITCSATSSVSYMHWFQQKPGTSPKLWIYSTSNLASGVPVRFSGSGSGTSYSLTISRMEAEDAATYYCQQRSSYPFTFGSGTKLEIKADAAPTVSIFPPSSEQLTSGGASVVCFLNNFYPKDINVKWKIDGSERQNGVLNSWTDQDSKDSTYSMSSTLTLTKDEYERHNSYTCEATHKTSTSPIVKSFNRNEC
notes: murine IgG1/kappa; also called m2E2; murine 2E2
For the molecule B1, the “Mean EC50 (ng/ml) for eosinophil depletion” value in experiment [1] is 6.8 ng/mL. Moreover, the “Mean EC50 (ng/ml) for eosinophil killing (2 donors)” value (“Mean EC50 (ng/ml) … (2 donors)” for short) in experiment [2] stood at 6.9 ng/mL. In addition, in experiment [3], the binding result is recorded as “no binding (tested: 1 µg/ml)”. In [4], this molecule displayed a Kd of 0.028 nM, a koff of 1.54e-05 s⁻¹ and a kon of 556000 M⁻¹ s⁻¹.

B2: HEKFmut (antibody, human IgG1, V domains shown)
VH: EVQLVESGGGLVQPGGSLRLSCAASGFSLTIYGAHWVRQAPGKGLEWVGVIWAGGSTNYNSALMSRFTISKDNSKNTVYLQMNSLRAEDTAVYYCARDGSSPYYYSMEYWGQGTTVTVSS
VL: EIVLTQSPATLSLSPGERATLSCSATSSVSYMHWFQQKPGQAPRLLIYSTSNLASGIPARFSGSGSGTDYTLTISSLEPEDFAVYYCQQRSSYPYTFGPGTKLDIK
notes: human IgG1/kappa; also called HEKFmut IgG1
B2: in [1], the “Mean EC50 (ng/ml) for eosinophil depletion” value was determined as 6.9 ng/mL. In addition, the EC50 in [5] amounted to 0.072 nM.

B3: HA2KD (antibody, human IgG1, V domains shown)
VH: QVQLQESGPGLVKPSETLSLTCTVSGGSISIYGAHWIRQPPGKGLEWIGVIWAGGSTNYNSALMSRVTISVDTSKNQFSLKLSSVTAADTAVYYCARDGSSPYYYSMEYWGQGTLVTVSS
VL: EIVLTQSPATLSLSPGERATLSCSATSSVSYMHWFQQKPGQAPRLWIYSTSNLASGIPARFSGSGSGTDFTLTISSLEPEDFAVYYCQQRSSYPFTFGPGTKLDIK
notes: human IgG1/kappa
In the case of B3, the binding result in experiment [6] is given as “no binding”.

B4: HA2KE (antibody, human IgG1, V domains shown)
VH: QVQLQESGPGLVKPSETLSLTCTVSGGSISIYGAHWIRQPPGKGLEWIGVIWAGGSTNYNSALMSRVTISVDTSKNQFSLKLSSVTAADTAVYYCARDGSSPYYYSMEYWGQGTLVTVSS
VL: EIVLTQSPATLSLSPGERATLSCSATSSVSYMHWFQQKPGQAPRLLIYSTSNLASGVPARFSGSGSGTDFTLTISSLEPEDFAVYYCQQRSSYPFTFGPGTKLDIK
notes: human IgG1/kappa
Turning to B4, the binding result in [6] is “no binding”.

B5: HA2KG (antibody, human IgG1, V domains shown)
VH: QVQLQESGPGLVKPSETLSLTCTVSGGSISIYGAHWIRQPPGKGLEWIGVIWAGGSTNYNSALMSRVTISVDTSKNQFSLKLSSVTAADTAVYYCARDGSSPYYYSMEYWGQGTLVTVSS
VL: EIVLTQSPATLSLSPGERATLSCSATSSVSYMHWYQQKPGQAPRLLIYSTSNLASGIPARFSGSGSGTDFTLTISSLEPEDFAVYYCQQRSSYPFTFGPGTKLDIK
notes: human IgG1/kappa
On to B5, for which the binding result in [6] is given as “no binding”.

B6: murine 4F11 antibody (antibody, mouse IgG1, V domains shown)
VH: QVQLQQSGAELVKPGASVKISCKASGYAFRSSWMNWVKQRPGKGLEWIGQIYPGDDYTNYNGKFKGKVTLTADRSSSTAYMQLSSLTSEDSAVYFCARLGPYGPFADWGQGTLVTVSA
VL: QIVLTQSPAIVSASPGEKVTMTCSASSSVSYMYWYQQRPGSSPRLLIYDTSSLASGVPVRFSGSGSGTSYSLTISRIESEDAANYYCQQWNSDPYTFGGGTKLEIK
notes: murine IgG1 heavy chain and kappa light chain
In the case of B6, in [2], the “Mean EC50 (ng/ml) … (2 donors)” value was 5.9 ng/mL. The binding result in experiment [7] and in experiment [8] was “binds” in each case.

B7: murine 1H10 antibody (antibody, mouse IgG1, V domains shown)
VH: EVQLQQSGAELVRPGASVKLSCTASGFNIKDYYMYWVKQRPEQGLEWIGRIAPEDGDTEYAPKFQGKATVTADTSSNTAYLHLSSLTSEDTAVYYCTTEGNYYGSSILDYWGQGTTLTVSS
VL: DIQMTQTTSSLSASLGDRVTISCRASQDITNYLNWYQQKPDGTVKLLIYFTSRLHSGVPSRFSGSGSGTDYSLTISNLEQEDIATYFCQQGNTLPWTFGGGTKLEIK
notes: as for B6
Consider B7, for which the “Mean EC50 (ng/ml) … (2 donors)” value in experiment [2] stood at 41 ng/mL. Further, the binding result in experiment [7] and in experiment [8] was “binds” each time.

B8: murine 1C3 antibody (antibody, mouse IgG2a, V domains shown)
VH: EVQVVESGGDLVKSGGSLKLSCAASGFPFSSYAMSWVRQTPDKRLEWVAIISSGGSYTYYSDSVKGRFTISRDNAKNTLYLQMSSLKSEDTAMYYCARHETAQAAWFAYWGQGTLVTVSA
VL: QIVLTQSPAIMSASPGEKVTMTCSASSSVSYMHWYQQKSGTSPKRWIYDTSKLAYGVPARFSGSGSGTSYSLTISSMEAEDAATYYCQQWSSNPPTFGGGTKLEIK
notes: murine IgG2a heavy chain and kappa light chain
For the molecule B8, the “Mean EC50 (ng/ml) … (2 donors)” value in [2] is 7.7 ng/mL. Moreover, the binding result in [9] is “no binding (tested: 1 µg/ml)”; in [3], “no binding (tested: 1 µg/ml)”; in experiment [10] it was “binds”; in experiment [11], “binds”.

B9: HEKA IgG1 antibody (antibody)
heavy: not shown
light: EIVLTQSPATLSLSPGERATLSCSATSSVSYMHWFQQKPGQAPRLLIYSTSNLASGIPARFSGSGSGTDFTLTISSLEPEDFAVYYCQQRSSYPFTFGPGTKLDIKRTVAAPSVFIFPPSDEQLKSGTASVVCLLNNFYPREAKVQWKVDNALQSGNSQESVTEQDSKDSTYSLSSTLTLSKADYEKHKVYACEVTHQGLSSPVTKSFNRGEC
Regarding B9, the “Mean EC50 (ng/ml) for eosinophil depletion” value in experiment [1] amounted to 4.3 ng/mL. Moreover, in experiment [5], the EC50 is 0.068 nM and 0.054 nM and 0.064 nM and 0.112 nM. In [12], the binding result was “binds”. The binding result in [10] is “binds”. Further, the binding result in experiment [11] is listed as “binds”. Besides, in [4], the Kd was determined as 0.017 nM, the koff is 1.11e-05 s⁻¹ and the kon amounted to 638000 M⁻¹ s⁻¹.

B10: HEKF IgG1 antibody (antibody, V domains shown)
VH: EVQLVESGGGLVQPGGSLRLSCAASGFSLTIYGAHWVRQAPGKGLEWVGVIWAGGSTNYNSALMSRFTISKDNSKNTVYLQMNSLRAEDTAVYYCARDGSSPYYYSMEYWGQGTTVTVSS
VL: EIVLTQSPATLSLSPGERATLSCSATSSVSYMHWFQQKPGQAPRLLIYSTSNLASGIPARFSGSGSGTDYTLTISSLEPEDFAVYYCQQRSSYPFTFGPGTKLDIKR
notes: also called HEKF T2
In the case of B10, the “Mean EC50 (ng/ml) for eosinophil depletion” value in experiment [1] amounted to 6.7 ng/mL. For the same molecule, in [5], the EC50 is 0.064 nM and 0.074 nM and 0.052 nM and 0.097 nM. In experiment [4], the Kd came out at 0.021 nM, the koff was 1.4e-05 s⁻¹ and the association rate constant (kon) worked out at 678000 M⁻¹ s⁻¹.
